Experimental data: patent US7556938B1, “Nucleic acids encoding potassium channel interactors” (Millennium Pharmaceuticals, Inc., priority 1998, dated 2009)

Tests used:
rKv4.3 = assay: Two-electrode voltage clamp of Kv4.3 currents in Xenopus oocytes co-injected with KChIP cRNA; type: cell-based, rat
Method: (§1) Frogs underwent no more than two surgeries and surgeries were performed by well established techniques. Frogs were anesthetized with ice. Total cRNA (1-10 ng) was injected into stage IV Xenopus oocytes that were harvested the previous day. The Xenopus oocytes were incubated in ND96 containing (in mM) 96 NaCl, 2 KCl, 1.8 CaCl2, 1 MgCl2, 5 HEPES, pH 7.6, plus (Gentamycin 50 μg/ml) at 18° C. Xenopus oocytes were studied 3-7 days after injection. The two-electrode voltage-clamp recordings were performed in ND96 solution using a TURBO TEC 03 Clamp Amplifier (ALA Scientific Instruments, Westbury, N.Y.). Both electrodes were filled with 3 M KCl and had electrode resistances ranging from 0.2-1 MOhm. The current signals were filtered at 1000 Hz before transferred on a PC (Gateway, Calif.) using the PULSE software (HEKA, Germany).
(§2) To investigate whether the modulatory effects of these KChIPs are specific for Kv4 channels, KChIP1 was coexpressed with Kv1.4 and Kv2.1 in Xenopus oocytes. Xenopus oocytes were injected with 1-3 ng/oocyte of cRNA which was prepared using standard in vitro transcription techniques (Sambrook et al. 1989. Molecular Cloning: a laboratory manual, Cold Spring Harbor Press). Currents in Xenopus oocytes were measured with a two-electrode voltage clamp. […] As a final control for the KChIP effects and to verify that the KChIPs' effects on Kv4 currents are independent of expression system, the above kinetic analyses were repeated after expressing Kv4.3 and KChIP mRNAs in Xenopus oocytes. The effects KChIP1 on for Kv4.3 in the Xenopus oocyte system were strikingly similar to those on Kv4.2 in CHO cells (Table 1).

hKv1.4 = hKv1.4 (Homo sapiens, UniProt P22459); assay: Two-electrode voltage clamp of Kv1.4 currents in Xenopus oocytes coexpressing 1v; type: cell-based
Chain of hKv1.4 (P22459 whole entry): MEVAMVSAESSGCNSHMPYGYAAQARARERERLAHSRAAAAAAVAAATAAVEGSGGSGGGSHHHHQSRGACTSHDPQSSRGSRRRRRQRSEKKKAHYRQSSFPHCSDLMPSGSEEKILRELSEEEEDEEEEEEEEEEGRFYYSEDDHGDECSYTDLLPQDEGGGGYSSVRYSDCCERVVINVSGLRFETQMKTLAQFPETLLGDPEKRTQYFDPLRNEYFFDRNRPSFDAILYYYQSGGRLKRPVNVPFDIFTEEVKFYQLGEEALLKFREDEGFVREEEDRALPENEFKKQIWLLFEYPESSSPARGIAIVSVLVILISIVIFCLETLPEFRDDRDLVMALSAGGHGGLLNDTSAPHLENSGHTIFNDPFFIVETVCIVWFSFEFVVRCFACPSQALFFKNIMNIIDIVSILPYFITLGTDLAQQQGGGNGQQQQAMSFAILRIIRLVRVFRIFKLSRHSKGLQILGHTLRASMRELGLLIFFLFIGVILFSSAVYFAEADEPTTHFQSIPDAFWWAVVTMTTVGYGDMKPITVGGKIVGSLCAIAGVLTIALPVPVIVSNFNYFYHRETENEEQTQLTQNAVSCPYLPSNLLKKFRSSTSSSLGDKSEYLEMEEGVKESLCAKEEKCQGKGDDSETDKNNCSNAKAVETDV
Method: as §1, §2

rKv4.3N = molecular target: T1, rKv4.3N (Rattus norvegicus, UniProt Q62897); assay: Yeast two-hybrid binding and specificity test, Kv4.3 N-terminal bait
T1 construct: expressed in transfected cells; host or cells: yeast HF7c (bait), mated with Y187 (fish)
T1 sequence (Q62897 1-180): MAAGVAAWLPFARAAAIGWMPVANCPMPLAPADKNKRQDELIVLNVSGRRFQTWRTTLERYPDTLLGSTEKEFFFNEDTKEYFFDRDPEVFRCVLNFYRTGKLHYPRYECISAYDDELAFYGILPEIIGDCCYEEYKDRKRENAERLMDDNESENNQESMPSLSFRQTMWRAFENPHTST
How it was run: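 Bait of rat Kv4.3 residues 1–180 in pGBT9, expressed in yeast HF7c, screened against a rat midbrain library. Positives scored by His and filter β-galactosidase reporters. Specificity tested by mating prey (in Y187) against a panel of related and unrelated baits and checking reporter activity.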

HKv2.1 = molecular target: T2, HKv2.1 (Homo sapiens, UniProt Q14721); assay: Two-electrode voltage clamp of Kv2.1 currents in Xenopus oocytes coexpressing 1v; type: cell-based
T2 sequence (Q14721 1-858): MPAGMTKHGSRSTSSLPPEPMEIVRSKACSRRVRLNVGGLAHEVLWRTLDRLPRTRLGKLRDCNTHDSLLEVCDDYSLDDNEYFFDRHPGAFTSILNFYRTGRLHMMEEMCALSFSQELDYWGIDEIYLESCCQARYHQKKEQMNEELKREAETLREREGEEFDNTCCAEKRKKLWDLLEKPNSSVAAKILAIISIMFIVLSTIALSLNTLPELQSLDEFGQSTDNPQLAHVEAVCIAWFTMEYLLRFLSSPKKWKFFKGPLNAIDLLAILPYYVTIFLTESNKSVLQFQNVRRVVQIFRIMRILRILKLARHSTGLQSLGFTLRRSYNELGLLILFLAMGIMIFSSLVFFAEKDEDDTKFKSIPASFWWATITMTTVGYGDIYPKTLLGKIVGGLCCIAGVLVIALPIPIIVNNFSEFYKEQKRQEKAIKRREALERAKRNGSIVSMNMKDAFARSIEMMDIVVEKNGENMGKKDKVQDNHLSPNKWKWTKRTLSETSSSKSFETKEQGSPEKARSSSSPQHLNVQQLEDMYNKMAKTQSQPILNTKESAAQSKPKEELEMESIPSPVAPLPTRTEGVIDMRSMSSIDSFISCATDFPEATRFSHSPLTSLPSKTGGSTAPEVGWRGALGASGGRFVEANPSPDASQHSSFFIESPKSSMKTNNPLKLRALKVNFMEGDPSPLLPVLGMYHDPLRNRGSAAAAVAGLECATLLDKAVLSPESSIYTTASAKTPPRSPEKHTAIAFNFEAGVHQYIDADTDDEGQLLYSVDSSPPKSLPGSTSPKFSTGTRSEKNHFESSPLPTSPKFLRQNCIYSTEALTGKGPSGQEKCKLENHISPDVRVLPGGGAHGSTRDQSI
Method: as §1, §2

[1] = Kv4.3 co-expressed with the KChIP

Chain of rKv4.3 (Q62897 1-487 limits assumed): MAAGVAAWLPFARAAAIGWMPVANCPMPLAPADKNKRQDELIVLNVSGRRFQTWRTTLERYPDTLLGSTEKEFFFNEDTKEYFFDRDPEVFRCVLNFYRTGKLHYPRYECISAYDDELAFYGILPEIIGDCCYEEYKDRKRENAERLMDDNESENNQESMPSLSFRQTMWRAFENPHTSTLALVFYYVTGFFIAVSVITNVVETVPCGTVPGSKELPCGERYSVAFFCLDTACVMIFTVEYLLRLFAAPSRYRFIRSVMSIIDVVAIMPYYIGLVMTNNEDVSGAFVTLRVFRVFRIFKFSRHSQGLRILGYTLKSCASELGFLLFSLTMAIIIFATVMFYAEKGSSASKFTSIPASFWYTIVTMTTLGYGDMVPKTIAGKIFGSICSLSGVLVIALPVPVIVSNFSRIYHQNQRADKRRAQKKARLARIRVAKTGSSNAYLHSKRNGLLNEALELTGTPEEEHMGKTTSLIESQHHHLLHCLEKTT

B1: KChIP1: Potassium channel interacting protein 1v, a Ca2+-binding protein that binds and modulates Kv4 channels (protein)
chain: MPARVLLAYPGTEMLTQGESEGLQTLGIVVVLCSSLKLLHYLGLIDLSDDKIEDDLEMTMVCHRPEGLEQLEAQTNFTKRELQVLYRGFKNECPSGVVNEETFKQIYAQFFPHGDASTYAHYLFNAFDTTQTGSVKFEDFVTALSILLRGTVHEKLRWTFNLYDINKDGYINKEEMMDIVKAIYDMMGKYTYPVLKEDTPRQHVDVFFQKMDKNKDGIVTLDEFLESCQEDDNIMRSLQLFQNVM
Inactivation time constant (ms ± SEM) (rKv4.3; [1]): 112 ± 3 ms | Peak amplitude (μA ± SEM) (rKv4.3; [1]): 59 ± 5 μA | Inactivation time constant (ms, at 50 mV) (rKv4.3; rKv4.3 + KChIP1, at 50 mV): 135.0 ± 15.1 ms | Peak Current (rKv4.3; rKv4.3 + KChIP1, at 50 mV, unit μA printed in cell): 18.1 μA* ± 3.8 | fold increase of inactivation time constant of Kv4.3 (rKv4.3; versus Kv4.3 alone): ~2 fold | effect on Kv1.4 currents (hKv1.4): did not appear to have any effect | Activation V1/2 (mV) (hKv1.4; hKv1.4 + 1v): −20.9 mV | Steady-state Inactivation V1/2 (mV) (hKv1.4; hKv1.4 + 1v): −47.5 mV | Inactivation time constant (ms, at 50 mV) (hKv1.4; hKv1.4 + 1v, at 50 mV): 58.2 ± 6.6 ms | Peak Current (μA/cell at 50 MV) (hKv1.4; hKv1.4 + 1v, at 50 mV): 6.5 ± 0.64 μA/cell | binding to rKv4.3N in yeast two-hybrid assay (rKv4.3N): able to bind to the Kv4.3 polypeptide | effect on Kv2.1 currents (HKv2.1): did not appear to have any effect | Activation V1/2 (mV) (HKv2.1; HKv2.1 + 1v): 12.4 mV | Steady-state Inactivation V1/2 (mV) (HKv2.1; HKv2.1 + 1v): −23.9 mV | Peak Current (μA/cell at 50 MV) (HKv2.1; HKv2.1 + 1v, at 50 mV): 2.9 ± 0.37 μA/cell | Inactivation time constant (at 50 mV) (HKv2.1; HKv2.1 + 1v, at 50 mV, listed as head says ms, cell prints s): 1.7 s 0.078
